Test results from PMC5536072.

Test system: p53 (full-length human) (Homo sapiens)
Experiment: AFM
Settings: AFM on mica, 'physiological buffer conditions', binding buffer and temperature not given in the material, DNA stock in 10 mM Tris-HCl pH 7.6, 1 mM EDTA

Substance	Kd (logistic fit of site occupancy against p53 18.9-56.6 nM, DNA 1 ng/uL)	Kd (stated as approximately the same Kd as for 20,000 bp DNA, p53 18.9-56.6 nM)
20,000 bp DNA	328 nM	
5000 bp DNA		328 nM
